Literature values in article PMC5580684.
Where “and” joins values, the source holds several entries; their conditions need not be identical. Identical values can stand only once.

Molecular target: DNA polymerase beta (Homo sapiens) (UniProt P06746)

For XRCC1 NTD (from UniProt P18887), the Kd is listed as 300 µM and 100 µM.
